Data: PMC11157482

Molecular target: Aβ42 wild-type (UniProt P05067)
Assay: fluorescence correlation spectroscopy (FCS); oligomers formed from S8C-Alexa488 and WT Aβ42 monomers 1:1.5 (labeled/unlabeled), about 10 μM total, 37 °C, stopped at t1/2; fibrils removed by centrifugation, oligomeric fraction isolated on Superdex 75; measured alone (three replicates) or with unlabeled WT fibrils (six replicates) 3-7 min after start, 37 °C, 20 mM sodium phosphate, 0.2 mM EDTA, pH 8.0; three-component fit (free dye, monomer, oligomer)

oligomer dissociation half-life (in the presence of unlabeled WT fibrils): < 7 min
stoichiometry N: 37 monomers
Substance: Alexa-488-labeled Aβ42-S8C (peptide)
